Reference: patent publication US20220387555A1 (LUDWIG INSTITUTE FOR CANCER RESEARCH, published 2022)
Where a chain is given by its changes, count along the chain named. One block for each binder: values may come before it.

Target: T1, human PDL1 protein (human, UniProt Q9NZQ7 19-238, limits assumed)
T1 construct: Plate-coated protein
Assay: titration ELISA, plates coated with human PD-L1, soluble monomeric decoy, anti-His tag detection

T1 sequence (Q9NZQ7 19-238 limits assumed): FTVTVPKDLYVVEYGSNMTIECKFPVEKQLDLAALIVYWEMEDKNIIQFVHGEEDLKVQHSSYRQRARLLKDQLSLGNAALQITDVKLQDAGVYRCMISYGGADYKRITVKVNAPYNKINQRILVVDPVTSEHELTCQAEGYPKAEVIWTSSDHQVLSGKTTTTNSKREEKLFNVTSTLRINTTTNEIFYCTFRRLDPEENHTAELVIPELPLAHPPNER

- fold better binding than the WT PD1 decoy: 10 fold
B1: PD1_4XMUT_M70 (with 6xHis) (receptor)
chain: MASDSPDRPWNPPTFSPALLVVTEGDNATFTCSFSNTSESFVLNWYRMSPSNQDDRLAAFPEDRSQPGQDARFRVTQLPNGRDFHMSVVRARRNDSGTYFCGAISLAPKAKIKESLRAELRVTERRALEHHHHHH
notes: also called soluble monomeric PD1 decoy variant

- fold better binding than the WT PD1 decoy: ~7.5 fold
B2: PD1_6XDM (with 6xHis) (receptor)
chain: B1 chain with D54V, A110W
notes: also called PD-1 decoy variant 6XDM; soluble monomeric PD1 decoy variant
